According to patent US20060239990A1, “Protein Arginine N-Methyltransferase 2 (PRMT-2)” (priority 2003, published 2006):

How the values were obtained:
IκB-α = assay: Co-immunoprecipitation with endogenous IκB-α in 293 cells; assay type: binding, human; conditions: HA-tagged constructs in 293 cells
Source text: A polyclonal antibody to recombinant PRMT2 was used to examine the association between endogenous PRMT2 and IκB-α in vivo. […] The domain of IκB-α required for association with PRMT2 was mapped using in vivo immunoprecipitation assays where HA-tagged PRMT2 was coexpressed with truncation mutants of His-tagged IκB-α (FIG. 5B) in 293 cells. The ankyrin domain was both necessary and sufficient for this association (FIG. 5D, lanes 1 and 2). The domain of PRMT2 that interacted with endogenous IκB-α was mapped by immunoprecipitation following expression HA-tagged PRMT2 truncation mutants (FIG. 5C). […] When the ratios of PRMT2 or PRMT2-A binding to IκB-α were compared, both interacted with IκB-α with similar affinity.

RB = target: T1, RB (Homo sapiens, UniProt P06400); assay: In vitro binding assay with GST-RB; conditions: S35-labeled in vitro translated protein
T1 construct: coding region of RB cDNA was subcloned into pGEX-6P (Amersham/Pharmacia) for generation of GST-RB; made in house
T1 sequence (P06400 1-928): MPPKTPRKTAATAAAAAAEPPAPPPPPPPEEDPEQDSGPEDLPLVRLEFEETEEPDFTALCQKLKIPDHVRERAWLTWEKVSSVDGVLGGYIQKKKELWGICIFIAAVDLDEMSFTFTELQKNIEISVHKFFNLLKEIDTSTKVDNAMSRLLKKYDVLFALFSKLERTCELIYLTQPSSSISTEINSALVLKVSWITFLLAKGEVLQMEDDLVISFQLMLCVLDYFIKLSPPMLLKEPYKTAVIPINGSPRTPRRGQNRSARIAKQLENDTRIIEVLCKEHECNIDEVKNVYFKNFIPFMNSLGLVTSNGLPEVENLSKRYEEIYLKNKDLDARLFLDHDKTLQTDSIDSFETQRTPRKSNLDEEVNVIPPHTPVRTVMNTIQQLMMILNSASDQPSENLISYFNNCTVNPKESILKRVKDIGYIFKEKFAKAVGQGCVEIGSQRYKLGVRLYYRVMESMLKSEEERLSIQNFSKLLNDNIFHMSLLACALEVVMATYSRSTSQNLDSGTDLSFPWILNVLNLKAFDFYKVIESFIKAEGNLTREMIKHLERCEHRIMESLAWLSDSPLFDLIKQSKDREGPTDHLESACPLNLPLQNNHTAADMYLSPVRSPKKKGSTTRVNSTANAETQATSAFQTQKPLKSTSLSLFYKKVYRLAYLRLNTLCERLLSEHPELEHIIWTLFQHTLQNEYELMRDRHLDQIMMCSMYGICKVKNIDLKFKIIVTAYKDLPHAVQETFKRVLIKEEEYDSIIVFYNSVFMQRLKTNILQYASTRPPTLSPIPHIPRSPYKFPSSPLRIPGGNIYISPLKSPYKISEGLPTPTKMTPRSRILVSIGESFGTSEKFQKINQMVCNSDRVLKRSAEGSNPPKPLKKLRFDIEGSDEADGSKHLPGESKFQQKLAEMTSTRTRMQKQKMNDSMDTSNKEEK
Procedure: The crude cell lysate of the GST-fusion proteins was prepared and purified according to the manufacture's protocol (Amersham/Pharmacia). [^35S]-methionine-labeled protein was produced by in vitro transcription/translation using the TNT T7-coupled reticulocyte lysate system (Promega). [^35S]-methionine-labeled protein and GST-fusion protein bound to glutathione sepharose 4B beads were incubated in 500 μl of HNE buffer (50 mM Hepes, pH 7.8, 150 mM NaCl, 1 mM EDTA, 1 mM DTT, 1% NP40, and 1× protease inhibitor mix (Complete: Roche)) at 4° C. for 1 hour. Beads were washed four times with HNE buffer, and then analyzed on an SDS-PAGE gradient gel (4-15%). For the detection of endogenous PRMT-2 interaction with RB, MEFs were lysed with WCL buffer (50 mM Hepes, pH 7.8, 400 mM NaCl, 2 mM EDTA, 1 mM DTT, 0.2% NP40, 10% Glycerol, 20 mM α-glycerophosphate, 5 mM NaF, 0.1 mM NaVO4, and 1× protease inhibitor mix). Then, 1 mg of whole cell extracts were incubated with HNE buffer without DTT and 3 μg of antibodies as indicated. The immune complexes were isolated using protein G beads, and washed four times with HNE buffer. The precipitated protein was boiled with SDS-loading buffer and resolved on SDS-PAGE. For immunoprecipitation of HA-tagged protein, transfected cells were lysed with RIPA buffer (phosphate buffer saline containing 1% NP40, 0.5% sodium deoxycholate, 0.1% SDS, and 1× Complete), and 100 μg of whole cell lysates were immunoprecipitated with anti-HA antibodies and washed in RIPA buffer. Western blot analysis was performed as described in Tanner et al. (1998). Circ Res, 82, 396-403.
To test whether PRMT family members interact with RB, S^35-labeled in vitro translated PRMT1, PRMT2, PRMT3, and PRMT4 (CARM1) were incubated with GST-RB fusion proteins or control GST, and co-precipitated labeled proteins were resolved by SDS-PAGE. […] An equal amount of GST-RB and GST were loaded in each lane, verified by Coomassie staining (FIG. 8B).

MHC Class I = assay: Flow cytometry of endogenous MHC Class I in 293T cells; assay type: cell-based, human; conditions: 48 hrs after transfection
Procedure: 293 cells were transfected with 1 μg of the indicated reporter plasmids and 5 μg of either PRMT2-A or pVR1012 plasmids. Cells were harvested 36 hours post-transfection, and CAT assays were performed. Data shown are the mean (±SEM)-fold inhibition, in the presence of PRMT2-A, over a vector control of 3 independent experiments. […] 293T human embryonic kidney cells were transfected with HIV-luciferase reporter (WT) or ΔκB-luciferase reporter (ΔκB) and PRMT2 or control vector plasmid. 24 hrs after transfection, cells were treated with vehicle (left panel) or with TNF-α (20 ng/ml; middle panel) or PMA (10 ng/ml; right panel) as indicated, and luciferase activity was measured 48 hrs post transfection. […] 293T cells were transfected with HA-PRMT2 or HA-PRMT2-N. Transfected cells were detached after 48 hrs and analyzed by flow cytometry for MHC Class I and CD9 in HA-positive cells in PRMT2 (FIG. 2C) or PRMT2-N (FIG. 2D) transfected cells. […] 293T cells were transfected with plasmids as indicated where IKK2 or p65 was added as shown, and the κB luciferase reporter gene was used to monitor NF-κB activity 48 hrs after transfection. Values are expressed as fold stimulation compared to the control vector.

IκB-α, sequence (P25963 whole entry, the tested form may be a part): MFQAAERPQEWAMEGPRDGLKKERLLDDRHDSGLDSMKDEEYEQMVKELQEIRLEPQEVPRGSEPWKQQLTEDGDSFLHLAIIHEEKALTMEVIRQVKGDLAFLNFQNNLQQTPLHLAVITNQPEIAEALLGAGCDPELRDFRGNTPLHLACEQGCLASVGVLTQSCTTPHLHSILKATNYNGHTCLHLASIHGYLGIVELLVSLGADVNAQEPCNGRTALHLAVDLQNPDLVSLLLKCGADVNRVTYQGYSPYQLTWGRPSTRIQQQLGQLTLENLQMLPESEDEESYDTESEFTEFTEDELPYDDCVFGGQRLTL

B1: PRMT2: human PRMT-2 polypeptide, SEQ ID NO:2, expressed from pVR1012 vector with HA-tag (protein, listed as Homo sapiens)
chain: MATSGDCPRSESQGEEPAECSEAGLLQEGVQPEEFVAIADYAATDETQLSFLRGEKILILRQTTADWWWGERAGCCGYIPANHVGKHVDEYDPEDTWQDEEYFGSYGTLKLHLEMLADQPRTTKYHSVILQNKESLTDKVILDVGCGTGIISLFCAHYARPRAVYAVEASEMAQHTGQLVLQNGFADIITVYQQKVEDVVLPEKVDVLVSEWMGTCLLFEFMIESILYARDAWLKEDGVIWPTMAALHLVPCSADKDYRSKVLFWDNAYEFNLSALKSLAVKEFFSKPKYNHILKPEDCLSEPCTILQLDMRTVQISDLETLRGELRFDIRKAGTLHGFTAWFSVHFQSLQEGQPPQVLSTGPFHPTTHWKQTLFMMDDPVPVHTGDVVTGSVVLQRNPVWRRHMSVALSWAVTSRQDPTSQKVGEKVFPIWR
modifications: HA tag
association with endogenous IκB-α (IκB-α): interacted
binding to RB (RB): directly interacts with RB
endogenous MHC Class I cell surface expression (MHC Class I): decreased endogenous MHC Class I cell surface expression
